Measured values: patent publication US12083109B2, “Neurokinin antagonists and uses thereof” (California Institute of Technology, priority 2017, dated 2024)

Test system: Tac2
Assay: Resident intruder assay, Tac2 shRNA knockdown
Type: in vivo, mouse
Details: SIS mice
Description: Small hairpin RNA (shRNA) for the mouse Tac2 gene (NM_009312.2) were designed using the online designing tool siDirect 2.0 (http://sidirect2.mai.jp/) (Naito et al., 2009; incorporated by reference in its entirety).
8-16 week old mice were anesthetized with isoflurane and mounted in a stereotaxic apparatus (Kopf Instruments). Anesthesia was maintained throughout surgery at 1-1.5% isoflurane. The skull was exposed and small burr holes produced dorsal to each injection site using a stereotaxic mounted drill. […] Directly following surgery, mice were given a subcutaneous injection of ketoprofen (2 mg/kg) and supplied with drinking water containing 400 mg/L sulphamethoxazole and 200 mg/L ibuprofen and monitored for 7 days. […]
Testing for aggression using the resident intruder assay (Blanchard et al., 2003; incorporated by reference in its entirety) was performed as previously described (Hong et al., 2015; Hong et al., 2014; Lee et al., 2014; incorporated by reference in their entirety). […] Fighting bouts were scored on a frame-by-frame basis and were defined as a frame during which the resident male was engaged in an episode of biting or intense aggressive behavior immediately surrounding a biting episode. Annotation files were then batch analyzed for behavior, including number of fighting bouts, using in-house customized programs in MATLAB (A. Kennedy, Caltech). […]

B1: shRNA-1: small hairpin RNA for mouse Tac2 gene (SEQ ID NO: 9, 10), expressed from AAV5-H1-shRNA-CMV-zsGreen (nucleic acid)
chain 1: CCGACGTGGTTGAAGAGAACACCGCTTCCTGTCACGGTGTTCTCTTCAACCACGTCTTTTTT
chain 2: AAAAAAGACGTGGTTGAAGAGAACACCGTGACAGGAAGCGGTGTTCTCTTCAACCACGTCGG
SIS-induced aggression (AAV shRNA in DMH): blocked | SIS-induced aggression (AAV shRNA in dBNSTa): had no effect
